Test results: the supplement of paper PMC7877785
± gives the uncertainty stated by the source.

Assay: self-splicing fitness, log relative to wild type (ln ratio); higher = more splicing; Tetrahymena group I intron in knt gene, E. coli kanamycin selection, DiMSum; sequences stand for … in CUCUCU…GGAGGGAAAAGUUAUCAGGCAUGCACCUGGUAGCUAGUCUUUAAACCAAUAGAUUGCAUCGGUUUAAAAGGCAAGACCGUCAAAUUGCGGGAAAGGGGUCAACAGCCGUUCAGUACCAAGUCUCAGGGGAAACUUUGAGAUGGCCUUGCAAAGGGUAUGGUAAUAAGCUGACGGACAUGGUCCUAACCACGCAGCCAAGUCCUAAGUCAACAGAUCUUCUGUUGAUAUGGAUGCAGUUCACAGACUAAAUGUCGGUCGGGGAAGAUGUAUUCUUCUCAUAAGAUAUAGUCGGACCUCUCCUUAAUGGGAGCUAGCGGAUGAAGUGAUGCAACACUGGAGCCGCUGGGAACUAAUUUGUAUGCGAAAGUAUAUUGAUUAGUUUUGGAGUACUCGUGGUCG
How it was run: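 The eight P1ex-region nucleotides of an intron in the knt kanamycin-resistance gene on pET-22b(+) were all randomised and the library put into E. coli BL21(DE3). Six replicate transformations were grown overnight at 37°C or 30°C on LB agar with or without 25 μg/mL kanamycin, together with 100 μg/mL carbenicillin, 50 μM IPTG and 0.2% rhamnose. Colonies were pooled and amplicon-sequenced on an Illumina HiSeq 2500. Fitness from DiMSum is the error-weighted combination of wild-type-normalised replicate fold changes, kanamycin over none.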

Row | Sequence | self-splicing fitness (ln) (30 °C) | self-splicing fitness (ln) (37 °C)
1 | CUGCAGCAAUAUUACGUUAU | -3.94 ± 0.17 | -3.07 ± 0.3
2 | CUGCAGCAAUAUUACGUUCG | -0.733 ± 0.074 | -0.62 ± 0.095
3 | CUGGAGCAAUAUUACGCACG | -0.0736 ± 0.32 | -1.08 ± 0.29
4 | CUGGAGCAAUAUUACGCAUC | – | -0.757 ± 0.42
5 | CUGGAGCAAUAUUACGGACC | -3.79 ± 0.24 | -2.04 ± 0.34
6 | CUGGAGCAAUAUUACGGAUG | -1.12 ± 0.16 | -0.927 ± 0.14
7 | CUGGAGCAAUAUUACGGGAC | 0.251 ± 0.35 | -1.08 ± 0.41
8 | CUGGAGCAAUAUUACGGGCU | -3.05 ± 0.37 | -2.46 ± 0.49
9 | CUGGAGCAAUAUUACGGGGA | -3.21 ± 0.28 | -2.39 ± 0.37
10 | CUGGAGCAAUAUUACGGGUC | -1.97 ± 0.16 | -2.26 ± 0.34
11 | CUGGAGCAAUAUUACGGUAG | -2.51 ± 0.22 | -0.514 ± 0.16
12 | CUGGAGCAAUAUUACGGUUA | -1.79 ± 0.26 | -2.31 ± 0.26
13 | CUGGAGCAAUAUUACGGUUG | -1.87 ± 0.081 | -1.11 ± 0.095
14 | CUGGAGCAAUAUUACGUAUU | -3.84 ± 0.31 | -2.09 ± 0.27
15 | CUGGAGCAAUAUUACGUCCC | – | -1.4 ± 0.46
16 | CUGGAGCAAUAUUACGUCCU | -3.17 ± 0.16 | -2.56 ± 0.22
17 | CUGGAGCAAUAUUACGUUAU | -4.35 ± 0.31 | -2.82 ± 0.26
18 | CUGGAGCAAUAUUACGUUGC | -3.09 ± 0.33 | –
19 | CUGGAGCAAUAUUACGUUGU | -2.64 ± 0.29 | -3.72 ± 0.33
20 | CUGUAGCAAUAUUACGAACA | -2 ± 0.41 | –
21 | CUGUAGCAAUAUUACGAUAC | -2.43 ± 0.29 | –
22 | CUGUAGCAAUAUUACGAUAG | -1.9 ± 0.23 | -1.17 ± 0.15

Row | Sequence | self-splicing fitness (ln) (30 °C) | self-splicing fitness (ln) (37 °C)
23 | CUGUAGCAAUAUUACGAUAU | -4.06 ± 0.32 | -2.75 ± 0.32
24 | CUGUAGCAAUAUUACGAUCU | -3.56 ± 0.26 | -2.05 ± 0.29
25 | CUGUAGCAAUAUUACGCCAC | -2.54 ± 0.25 | -2.09 ± 0.47
26 | CUGUAGCAAUAUUACGCCAU | -3.3 ± 0.34 | –
27 | CUGUAGCAAUAUUACGCGGG | -3.04 ± 0.24 | -2.07 ± 0.31
28 | CUGUAGCAAUAUUACGCUAG | -3.71 ± 0.21 | -2.36 ± 0.23
29 | CUGUAGCAAUAUUACGGAAC | – | -2.87 ± 0.34
30 | CUGUAGCAAUAUUACGGAAG | -3.31 ± 0.16 | -2.22 ± 0.19
31 | CUGUAGCAAUAUUACGGAUU | -3.48 ± 0.28 | -2.7 ± 0.33
32 | CUGUAGCAAUAUUACGGCUG | -0.442 ± 0.099 | -0.0988 ± 0.13
33 | CUGUAGCAAUAUUACGGCUU | -3.72 ± 0.25 | -2.86 ± 0.3
34 | CUGUAGCAAUAUUACGGUGU | -3.41 ± 0.12 | -2.88 ± 0.14
35 | CUGUAGCAAUAUUACGGUUA | -2.17 ± 0.24 | -2.58 ± 0.36
36 | CUGUAGCAAUAUUACGUAAA | -3.52 ± 0.3 | -1.6 ± 0.23
37 | CUGUAGCAAUAUUACGUAGA | -2.66 ± 0.12 | -2.51 ± 0.16
38 | CUGUAGCAAUAUUACGUAGU | -4.78 ± 0.36 | -2.65 ± 0.35
39 | CUGUAGCAAUAUUACGUCAG | -3.53 ± 0.23 | -2.88 ± 0.34
40 | CUGUAGCAAUAUUACGUCCA | – | -2.89 ± 0.48
41 | CUGUAGCAAUAUUACGUCUG | -0.298 ± 0.088 | 0.128 ± 0.1
42 | CUGUAGCAAUAUUACGUGAU | -1.56 ± 0.085 | -0.44 ± 0.11
43 | CUGUAGCAAUAUUACGUGCG | -1.38 ± 0.08 | -0.547 ± 0.092
44 | CUUAAGCAAUAUUACGAAUA | -2.42 ± 0.27 | -3.17 ± 0.43

Row | Sequence | self-splicing fitness (ln) (30 °C) | self-splicing fitness (ln) (37 °C)
45 | CUUAAGCAAUAUUACGACUA | -1.35 ± 0.35 | –
46 | CUUAAGCAAUAUUACGAGGC | -3.19 ± 0.32 | -2.53 ± 0.41
47 | CUUAAGCAAUAUUACGAGUC | -3.23 ± 0.33 | -2.33 ± 0.29
48 | CUUAAGCAAUAUUACGAUCA | -2.93 ± 0.26 | -3.2 ± 0.33
49 | CUUAAGCAAUAUUACGCAAA | -2.76 ± 0.4 | –
50 | CUUAAGCAAUAUUACGCGAU | -1.91 ± 0.19 | -0.837 ± 0.18
51 | CUUAAGCAAUAUUACGCUCG | -2.09 ± 0.22 | 0.521 ± 0.29
52 | CUUAAGCAAUAUUACGCUUA | -3.39 ± 0.32 | -1.58 ± 0.2
53 | CUUAAGCAAUAUUACGGAGG | -2.43 ± 0.21 | -3.19 ± 0.37
54 | CUUAAGCAAUAUUACGGGAU | -2.82 ± 0.17 | -1.94 ± 0.19
55 | CUUAAGCAAUAUUACGGUAC | -3.99 ± 0.36 | -3.27 ± 0.32
56 | CUUAAGCAAUAUUACGGUGG | -1.7 ± 0.092 | -0.937 ± 0.1
57 | CUUAAGCAAUAUUACGGUUA | – | -2.16 ± 0.29
58 | CUUAAGCAAUAUUACGUACG | -0.58 ± 0.076 | -0.451 ± 0.079
59 | CUUAAGCAAUAUUACGUCCG | -0.258 ± 0.11 | 0.679 ± 0.19
60 | CUUAAGCAAUAUUACGUCGU | -4.59 ± 0.46 | -2.22 ± 0.29
61 | CUUAAGCAAUAUUACGUCUA | -3.67 ± 0.25 | -2.97 ± 0.23
62 | CUUAAGCAAUAUUACGUCUG | -0.605 ± 0.067 | -0.254 ± 0.08
63 | CUUAAGCAAUAUUACGUGUU | -4.03 ± 0.15 | -2.66 ± 0.15
64 | CUUAAGCAAUAUUACGUUCG | -1.05 ± 0.075 | -0.0528 ± 0.099
